Data reported in publication PMC9242648.

T1: human regulatory light chain (MYL2), P10916
T1 chain: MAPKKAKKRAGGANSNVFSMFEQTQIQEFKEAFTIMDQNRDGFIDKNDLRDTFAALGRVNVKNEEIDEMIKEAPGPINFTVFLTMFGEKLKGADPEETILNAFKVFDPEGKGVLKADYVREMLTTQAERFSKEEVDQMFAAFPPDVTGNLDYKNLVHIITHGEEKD

B1: human β-cardiac myosin 2-hep heavy chain, wild type A797T (protein)
chain: MGDSEMAVFGAAAPYLRKSEKERLEAQTRPFDLKKDVFVPDDKQEFVKAKIVSREGGKVTAETEYGKTVTVKEDQVMQQNPPKFDKIEDMAMLTFLHEPAVLYNLKDRYGSWMIYTYSGLFCVTVNPYKWLPVYTPEVVAAYRGKKRSEAPPHIFSISDNAYQYMLTDRENQSILITGESGAGKTVNTKRVIQYFAVIAAIGDRSKKDQSPGKGTLEDQIIQANPALEAFGNAKTVRNDNSSRFGKFIRIHFGATGKLASADIETYLLEKSRVIFQLKAERDYHIFYQILSNKKPELLDMLLITNNPYDYAFISQGETTVASIDDAEELMATDNAFDVLGFTSEEKNSMYKLTGAIMHFGNMKFKLKQREEQAEPDGTEEADKSAYLMGLNSADLLKGLCHPRVKVGNEYVTKGQNVQQVIYATGALAKAVYERMFNWMVTRINATLETKQPRQYFIGVLDIAGFEIFDFNSFEQLCINFTNEKLQQFFNHHMFVLEQEEYKKEGIEWTFIDFGMDLQACIDLIEKPMGIMSILEEECMFPKATDMTFKAKLFDNHLGKSANFQKPRNIKGKPEAHFSLIHYAGIVDYNIIGWLQKNKDPLNETVVGLYQKSSLKLLSTLFANYAGADAPIEKGKGKAKKGSSFQTVSALHRENLNKLMTNLRSTHPHFVRCIIPNETKSPGVMDNPLVMHQLRCNGVLEGIRICRKGFPNRILYGDFRQRYRILNPAAIPEGQFIDSRKGAEKLLSSLDIDHNQYKFGHTKVFFKAGLLGLLEEMRDERLSRIITRIQAQSRGVLTRMEYKKLLERRDSLLVIQWNIRAFMGVKNWPWMKLYFKIKPLLKSAEREKEMASMKEELEDKVEELLSKNYHLENEVARL
B2: human β-cardiac myosin 2-hep heavy chain, wild type F834L (protein)
chain: MGDSEMAVFGAAAPYLRKSEKERLEAQTRPFDLKKDVFVPDDKQEFVKAKIVSREGGKVTAETEYGKTVTVKEDQVMQQNPPKFDKIEDMAMLTFLHEPAVLYNLKDRYGSWMIYTYSGLFCVTVNPYKWLPVYTPEVVAAYRGKKRSEAPPHIFSISDNAYQYMLTDRENQSILITGESGAGKTVNTKRVIQYFAVIAAIGDRSKKDQSPGKGTLEDQIIQANPALEAFGNAKTVRNDNSSRFGKFIRIHFGATGKLASADIETYLLEKSRVIFQLKAERDYHIFYQILSNKKPELLDMLLITNNPYDYAFISQGETTVASIDDAEELMATDNAFDVLGFTSEEKNSMYKLTGAIMHFGNMKFKLKQREEQAEPDGTEEADKSAYLMGLNSADLLKGLCHPRVKVGNEYVTKGQNVQQVIYATGALAKAVYERMFNWMVTRINATLETKQPRQYFIGVLDIAGFEIFDFNSFEQLCINFTNEKLQQFFNHHMFVLEQEEYKKEGIEWTFIDFGMDLQACIDLIEKPMGIMSILEEECMFPKATDMTFKAKLFDNHLGKSANFQKPRNIKGKPEAHFSLIHYAGIVDYNIIGWLQKNKDPLNETVVGLYQKSSLKLLSTLFANYAGADAPIEKGKGKAKKGSSFQTVSALHRENLNKLMTNLRSTHPHFVRCIIPNETKSPGVMDNPLVMHQLRCNGVLEGIRICRKGFPNRILYGDFRQRYRILNPAAIPEGQFIDSRKGAEKLLSSLDIDHNQYKFGHTKVFFKAGLLGLLEEMRDERLSRIITRIQAQSRGVLARMEYKKLLERRDSLLVIQWNIRAFMGVKNWPWMKLYLKIKPLLKSAEREKEMASMKEELEDKVEELLSKNYHLENEVARL
B3: human β-cardiac myosin 2-hep heavy chain, wild type S782N (protein)
chain: MGDSEMAVFGAAAPYLRKSEKERLEAQTRPFDLKKDVFVPDDKQEFVKAKIVSREGGKVTAETEYGKTVTVKEDQVMQQNPPKFDKIEDMAMLTFLHEPAVLYNLKDRYGSWMIYTYSGLFCVTVNPYKWLPVYTPEVVAAYRGKKRSEAPPHIFSISDNAYQYMLTDRENQSILITGESGAGKTVNTKRVIQYFAVIAAIGDRSKKDQSPGKGTLEDQIIQANPALEAFGNAKTVRNDNSSRFGKFIRIHFGATGKLASADIETYLLEKSRVIFQLKAERDYHIFYQILSNKKPELLDMLLITNNPYDYAFISQGETTVASIDDAEELMATDNAFDVLGFTSEEKNSMYKLTGAIMHFGNMKFKLKQREEQAEPDGTEEADKSAYLMGLNSADLLKGLCHPRVKVGNEYVTKGQNVQQVIYATGALAKAVYERMFNWMVTRINATLETKQPRQYFIGVLDIAGFEIFDFNSFEQLCINFTNEKLQQFFNHHMFVLEQEEYKKEGIEWTFIDFGMDLQACIDLIEKPMGIMSILEEECMFPKATDMTFKAKLFDNHLGKSANFQKPRNIKGKPEAHFSLIHYAGIVDYNIIGWLQKNKDPLNETVVGLYQKSSLKLLSTLFANYAGADAPIEKGKGKAKKGSSFQTVSALHRENLNKLMTNLRSTHPHFVRCIIPNETKSPGVMDNPLVMHQLRCNGVLEGIRICRKGFPNRILYGDFRQRYRILNPAAIPEGQFIDSRKGAEKLLSSLDIDHNQYKFGHTKVFFKAGLLGLLEEMRDERLNRIITRIQAQSRGVLARMEYKKLLERRDSLLVIQWNIRAFMGVKNWPWMKLYFKIKPLLKSAEREKEMASMKEELEDKVEELLSKNYHLENEVARL

Columns and labels:
[1] = molecular target: human essential light chain (MYL3), P08590; experiment: Coomassie SDS-PAGE gel-based light chain loading assay; conditions: chain shown with the change;; read off a plot
[2] = molecular target: T1, human regulatory light chain (MYL2), …; experiment: as above; conditions: chain shown with the change;; read off a plot

Sequence of human essential light chain (MYL3), P08590 (P08590 whole entry): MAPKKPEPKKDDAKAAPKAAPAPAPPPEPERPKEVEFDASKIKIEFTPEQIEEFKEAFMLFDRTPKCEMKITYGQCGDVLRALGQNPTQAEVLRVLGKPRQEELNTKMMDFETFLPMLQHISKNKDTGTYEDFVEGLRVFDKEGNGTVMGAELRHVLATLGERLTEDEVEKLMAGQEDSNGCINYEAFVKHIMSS

| Binder | ratio to parent [1] | ratio to parent [2] |
| --- | --- | --- |
| B1 | 0.96 | 0.97 |
| B2 | 1 | 1.1 |
| B3 | 1.1 | 1.2 |
